Experimental findings from patent US20180194833A1 (H LUNDBECK A S, published 2018) are described below.

Test [1] addresses Mouse alpha-synuclein (mouse, UniProt O55042 1-140). Nature of the test: Fortebio Octetred.
For test [2], the target named is Human alpha-synuclein (human, UniProt P37840 1-140). In words: SPR (BIAcore 3000), antibody captured by goat anti-human IgG, human alpha-synuclein 3.125-100 nM as analyte. Background: SPR reads the build-up and loss of mass on a sensor chip optically.
Description: Goat anti-human IgG was immobilized on the CM5 chip. […] The sensor surface was regenerated between each cycle.

B1: GM285 (antibody, human IgG1, kappa, V domains shown)
VH: EVQLLESGGGLVQPGGSLRLSCAASGFTFSRFTMTWVRQAPGKGLEWVSAISGSGGGTSYADSVKGRLTVSRDNSKNTLYLQMNSLRAEDTAVYYCAKNWAPFDYWGQGTLVTVSS
VL: not shown
notes: also called mab285
Regarding B1, the binding result in test [1] was “binds”.

B2: GM37 (antibody, human IgG1, kappa, V domains shown)
VH: EVQLLESGGGLVQTGGSLRLSCAASGFTFSSYAMTWVRQAPGKGLEWVSAIRSNGDRTDYADSVKGRFTISRDNSQNTLYLQMNSLRAEDTAVYYCAKNWAPFDSWGQGTLVTVSS
VL: not shown
notes: also called GM37 wild type (wt); GM37wt
As to B2, the binding result in test [1] is recorded as “binds”.

B3: Comparator antibody 9E4 (antibody, human IgG1, kappa, V domains shown)
VH: EVQLVESGGGLVQPGGSLRLSCAASGFTFSNYGMSWVRQAPGKGLEWVASISSGGGSTYYPDNVKGRFTISRDNAKNSLYLQMNSLRAEDTAVYYCARGGAGIDYWGQGTLVTVSS
VL: DIQMTQSPSSLSASVGDRVTITCKSIQTLLYSSNQKNYLAWFQQKPGKAPKLLIYWASIRKSGVPSRFSGSGSGTDFTLTISSLQPEDLATYYCQQYYSYPLTFGGGTKLEIKR
notes: also called h9E4; human 9E4
Regarding B3, the binding result in test [2] is reported as “binds”.
